By stoichiometry N is commonly meant the number of molecules, sites or subunits per partner or assembly.

The target of test [1] is membranous subcomplex VO (ICL12) of the Thermus thermophilus rotary ATPase (Thermus thermophilus) (UniProt P74902). The test can be described thus: native MS.
In test [2] the target is subunit L of the Thermus thermophilus rotary ATPase (L12 membrane ring) (Thermus thermophilus). The test can be described thus: native MS.

In test [1], “peripheral stalk (subunits E and G) of the Thermus thermophilus rotary ATPase (from UniProt P74901 1-188) (complex)” registered a stoichiometry N of 2.

In turn, “subunit L of the Thermus thermophilus rotary ATPase (L12 membrane ring) (natural protein)” came in with a stoichiometry N in test [2] of 12.
